Measured values: PMC5305270
Positions count from the first letter of the chain named. Names and notes keep the numbering of the source.

T1: GST::DEP-1intra-DA (intracellular domain of C. elegans DEP-1 with the substrate trapping mutation D1241A, GST fusion), G5EGJ9
T1 chain: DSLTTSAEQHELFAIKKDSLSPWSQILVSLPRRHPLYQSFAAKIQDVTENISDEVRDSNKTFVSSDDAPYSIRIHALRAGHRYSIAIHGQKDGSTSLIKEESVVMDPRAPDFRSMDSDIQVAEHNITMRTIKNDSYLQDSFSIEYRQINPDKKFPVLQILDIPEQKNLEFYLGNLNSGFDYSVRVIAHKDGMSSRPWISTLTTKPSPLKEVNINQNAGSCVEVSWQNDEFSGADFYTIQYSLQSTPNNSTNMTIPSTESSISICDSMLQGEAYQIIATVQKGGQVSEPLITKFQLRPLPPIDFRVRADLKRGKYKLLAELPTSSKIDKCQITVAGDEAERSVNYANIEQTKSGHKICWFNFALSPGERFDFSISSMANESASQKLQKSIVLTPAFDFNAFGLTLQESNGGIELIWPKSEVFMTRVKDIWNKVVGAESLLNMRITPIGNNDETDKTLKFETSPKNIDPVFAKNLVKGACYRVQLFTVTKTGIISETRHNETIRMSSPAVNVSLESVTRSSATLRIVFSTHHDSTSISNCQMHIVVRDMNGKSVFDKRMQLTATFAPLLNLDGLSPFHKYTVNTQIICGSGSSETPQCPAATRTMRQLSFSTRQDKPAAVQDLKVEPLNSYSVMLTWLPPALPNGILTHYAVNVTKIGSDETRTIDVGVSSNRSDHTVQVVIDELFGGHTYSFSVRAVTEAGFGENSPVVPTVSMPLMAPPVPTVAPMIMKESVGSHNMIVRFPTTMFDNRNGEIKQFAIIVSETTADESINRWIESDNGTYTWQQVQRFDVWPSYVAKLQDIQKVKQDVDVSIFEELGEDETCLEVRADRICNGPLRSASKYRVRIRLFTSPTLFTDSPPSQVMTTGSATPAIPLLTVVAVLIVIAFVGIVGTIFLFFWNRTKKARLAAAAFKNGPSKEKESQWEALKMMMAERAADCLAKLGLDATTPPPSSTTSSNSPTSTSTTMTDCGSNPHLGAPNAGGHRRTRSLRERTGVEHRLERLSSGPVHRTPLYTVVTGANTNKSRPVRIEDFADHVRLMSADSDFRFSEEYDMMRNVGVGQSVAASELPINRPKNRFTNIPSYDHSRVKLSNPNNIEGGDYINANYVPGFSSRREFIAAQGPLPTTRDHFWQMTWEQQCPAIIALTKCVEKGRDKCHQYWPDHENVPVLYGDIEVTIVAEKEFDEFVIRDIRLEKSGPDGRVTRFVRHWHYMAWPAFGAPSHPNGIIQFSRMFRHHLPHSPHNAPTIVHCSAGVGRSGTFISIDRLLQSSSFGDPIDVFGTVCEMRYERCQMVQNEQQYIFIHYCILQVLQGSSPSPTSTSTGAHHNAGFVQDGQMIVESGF

B1: PAT-3::GFP (wild type), Q27874 Y792A; Y804A (protein)
chain: ASDWKTGEVTGKVVEKSEFPCYSLSRDNYTCSACIQYHESCAWCGAPMFDEKKPYARCDSRAKLMEHGCPNSYIEDPATKLDITEDSKLSDQGQVESEEEAVQIKPQEMYVEIRPKSRVRFNVTYRQAVDYPVDLYYLMDLSYSMKDDKQKLSELGDLLAERMRTVTKNFRLGFGSFIDKKLMPFIDPRIEKQLSPCPTPCAEPYGFKHQMSLTTNTAKFKAEVDKAEISGNLDAPEGGFDAVVQALACNKTIGWRERARKMIVFSTDAGFHFAGDGRLAGVVEPNDGTCHLDREGYYTETLNQDYPSIALLHQMIKDRKANVIFAVTKNNQDLYTQLSNALPDVSSSVGVLANDSRNIVDLIEKEYLKISEKIIMVDNANASEGLKLTYRSMCLDGTTLKDTNVCEGIRVGDEVQFEVTLENTHCIDKRDFVLRIGPSGLDETLIVNVKVLCDCDCERQDRIVTNSADCNGGDMVCGVCRCKGGNVGKYCECNRPGMSTAALNEKCKRTNESAICEGRGVCNCGRCECNPRANPEEQISGEFCECDNFNCPRHDRKICAEHGECNCGKCICAPGWTGRACECPISTDSCLSANGKICNGKGECICGRCRCFDSPDGNRYSGAKCEICPTCPTKCVEYKNCVMCQQWQTGPLNETACDQCEFKVIPVEELPNLNETTPCQFVDPADDCTFYYLYYYDEATDNATVWVRKHKDCPPPVPVLAIVLGVIAGIVILGILLLLLWKLLTVLHDRSEYATFNNERLMAKWDTNENPIAKQATTTFKNPVAAGKAN
B2: PAT-3::GFP (wild type), Q27874 Y792A (protein)
chain: B1 chain with A785Y
B3: PAT-3::GFP (wild type), Q27874 Y804A (protein)
chain: B1 chain with A773Y
B4: PAT-3::GFP (wild type), Q27874 Y772A (protein)
chain: B1 chain with Y753A, A773Y, A785Y
B5: PAT-3::GFP (wild type), Q27874 TTT796-798AAA (protein)
chain: B1 chain with A773Y, T777A, T778A, T779A, A785Y

Target: T1, GST::DEP-1intra-DA (intracellular …)
Test: GST pull-down, anti-GFP Western blot, densitometry
Conditions: chain shown with the change; three independent experiments; band intensities normalized to input; parent: est. 100; read off a plot

| Binder | percent of parent [%] |
| --- | --- |
| B1 | 13 |
| B2 | 10 |
| B3 | 92 |
| B4 | 37 |
| B5 | 13 |
